Measurements as given in article PMC6881253, “The PCNA interaction motifs revisited: thinking outside the PIP-box” (Cellular and Molecular Life Sciences: CMLS, 2019).
Blank lines part the entries; values can stand above or below the binder they belong to.

Key:
Settings in all cases: both partners purified
[1] = molecular target: T1, N-terminally His6-tagged human PCNA (proliferating cell nuclear antigen) (human, UniProt P12004 1-261); assay: ITC; ITC200; PCNA injected into the peptide; 10 mM HEPES, 150 mM NaCl, 1 mM EDTA, 1 mM TCEP, pH 7.4; 25 °C; single binding site model; triplicates
T1 construct: Proliferating cell nuclear antigen, human; The tag is used for capture in SPR; source: E. coli BL21(DE3), purified (Ni-NTA, SEC)
T1 sequence (P12004 whole entry): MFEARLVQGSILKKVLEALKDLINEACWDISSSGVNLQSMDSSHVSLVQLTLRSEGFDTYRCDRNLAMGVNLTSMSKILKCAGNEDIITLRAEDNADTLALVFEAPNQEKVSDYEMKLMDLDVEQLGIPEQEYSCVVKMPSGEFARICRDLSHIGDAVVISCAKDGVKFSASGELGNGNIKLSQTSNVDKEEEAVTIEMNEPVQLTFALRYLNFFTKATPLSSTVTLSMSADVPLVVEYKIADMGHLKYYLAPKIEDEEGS

[2] = molecular target: T1, N-terminally His6-tagged human PCNA …; assay: SPR; Biacore T200, single-cycle; His6-PCNA captured by anti-His antibody coupled to a CM5 chip, peptides injected (five twofold dilutions); 10 mM HEPES, 150 mM NaCl, 0.05% P20, pH 7.4; 25 °C; kinetic fit for p21, steady-state fit for the other peptides
[3] = molecular target: T1, N-terminally His6-tagged human PCNA …; assay: as above; remark: listed apart in the source
[4] = molecular target: T1, N-terminally His6-tagged human PCNA …; assay: ITC; ITC200; PCNA injected into the peptide; 10 mM HEPES, 150 mM NaCl, 1 mM EDTA, 1 mM TCEP, pH 7.4; 25 °C; single binding site model; triplicates; remark: listed apart in the source

B1: chimeric peptide comprising the Fen1 motif and the flanking regions of p21 (Ac-RKRRQGRLDDFFHSKRRL-NH2) (peptide)
peptide: Ac-RKRRQGRLDDFFHSKRRL-NH2
notes: PIP-box motif of flap endonuclease 1 (FEN1), human; also called p21 flanks grafted to Fen1; source: peptide, > 95% purity
Kd [1]: 730 nM

B2: FEN1 peptide (Ac-TQGRLDDFFKVTGSL-NH2) (peptide)
peptide: Ac-TQGRLDDFFKVTGSL-NH2
notes: Flap endonuclease 1 (FEN1), human, canonical PIP-box; source: peptide, > 95% purity
Kd [2]: 45 µM

B4: MSH6 peptide (Ac-RQSTLYSFFPKSPAL-NH2) (peptide)
peptide: Ac-RQSTLYSFFPKSPAL-NH2
notes: DNA mismatch repair protein MSH6, human, canonical PIP-box at the very N-terminus; source: peptide, > 95% purity
Kd [3]: 3000 ± 50 nM | Kd [2]: 2.9 µM

B5: p21^143–157 peptide (Ac-RQTSMTDFYHSKRRL-NH2) (peptide)
peptide: Ac-RQTSMTDFYHSKRRL-NH2
notes: also called initial p21 peptide; p21 peptide; source: peptide, > 95% purity
koff [3]: 0.14 ± 0.0003 s⁻¹ | kon [3]: 1.7e+06 M⁻¹ s⁻¹ | stoichiometry N [3]: 3 ligands per PCNA trimer | Kd [2]: 0.08 µM | Kd [4]: 67 nM | dH [4]: -230 kJ/mol

B7: p21^140–157,Q144A (Ac-RKRRATSMTDFYHSKRRL-NH2) (peptide)
peptide: Ac-RKRRATSMTDFYHSKRRL-NH2
notes: also called p21 peptide variant with Q at the first position mutated to alanine; source: peptide, > 95% purity
Kd [1]: 1300 nM

B8: p21^140–157 peptide (peptide)
peptide: Ac-RKRRQTSMTDFYHSKRRL-NH2
notes: also called extended peptide; source: peptide, > 95% purity
Kd [1]: 27 nM

Further lines, results first:

Kd [1]: 6.4 nM
B3: p21^140–164 peptide (Ac-[residues removed]-NH2) (peptide)
peptide: RKRRQTSMTDFYHSKRRLIFSKRKP
modifications: N-terminally acetylated, C-terminally amidated
notes: called p21^140–163 in the results and the ITC methods; the name p21^140–163 is used elsewhere for the same peptide; also called p21^140–163; source: peptide, > 95% purity

Kd [2]: 11 µM
B6: synthetic peptide harboring an APIM (Ac-MDRWLVKW-NH2) (peptide)
peptide: Ac-MDRWLVKW-NH2
notes: also called APIM peptide; source: synthetic peptide, > 95% purity
